Test results as given in patent publication US20260317428 (published 2026).

Tests used:
[1] = target: T1, human FGFR2b ECD (human, UniProt P21802); experiment: BLI
T1 chain: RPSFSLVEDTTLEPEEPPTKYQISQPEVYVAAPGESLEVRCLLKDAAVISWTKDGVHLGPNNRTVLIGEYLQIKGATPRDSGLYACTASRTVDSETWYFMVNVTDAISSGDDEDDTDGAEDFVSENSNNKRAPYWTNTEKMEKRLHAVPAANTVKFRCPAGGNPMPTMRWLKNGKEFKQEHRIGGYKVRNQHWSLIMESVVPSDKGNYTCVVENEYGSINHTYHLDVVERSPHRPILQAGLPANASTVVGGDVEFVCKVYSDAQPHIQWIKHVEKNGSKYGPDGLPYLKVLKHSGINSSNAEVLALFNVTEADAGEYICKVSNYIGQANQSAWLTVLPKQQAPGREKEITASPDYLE

[2] = target: FGFR2IIIc on HEK293 cells (human, UniProt P21802); experiment: FACS
[3] = target: T2, human FGFR3c (alpha IIIc) (human, UniProt P22607); experiment: ELISA
T2 chain: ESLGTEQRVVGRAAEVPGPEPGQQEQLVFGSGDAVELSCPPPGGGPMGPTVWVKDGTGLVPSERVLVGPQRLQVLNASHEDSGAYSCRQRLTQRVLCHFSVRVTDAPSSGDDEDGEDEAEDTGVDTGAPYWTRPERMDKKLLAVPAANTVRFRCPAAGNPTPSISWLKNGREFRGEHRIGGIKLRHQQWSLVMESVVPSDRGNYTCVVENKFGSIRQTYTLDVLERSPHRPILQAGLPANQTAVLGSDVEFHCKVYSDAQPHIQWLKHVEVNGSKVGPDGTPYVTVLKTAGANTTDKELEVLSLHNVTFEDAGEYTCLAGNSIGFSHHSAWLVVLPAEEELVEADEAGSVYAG

[4] = target: T3, human FGFR1b (alpha IIIb) (human, UniProt P11362); experiment: ELISA
T3 chain: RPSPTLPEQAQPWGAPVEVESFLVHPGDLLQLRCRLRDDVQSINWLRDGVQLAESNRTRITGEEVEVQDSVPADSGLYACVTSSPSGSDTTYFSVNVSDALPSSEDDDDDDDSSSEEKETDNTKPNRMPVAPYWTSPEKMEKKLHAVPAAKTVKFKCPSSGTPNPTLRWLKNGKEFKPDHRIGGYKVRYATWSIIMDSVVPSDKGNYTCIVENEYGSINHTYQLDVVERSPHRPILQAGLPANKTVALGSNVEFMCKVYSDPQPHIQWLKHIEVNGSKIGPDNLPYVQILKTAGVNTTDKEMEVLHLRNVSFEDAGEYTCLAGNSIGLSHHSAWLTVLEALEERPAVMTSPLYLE

[5] = target: human FGFR2c (alpha IIIc) (human, UniProt P21802); experiment: ELISA
[6] = target: T4, human FGFR3b (alpha IIIb) (human, UniProt P22607); experiment: ELISA
T4 chain: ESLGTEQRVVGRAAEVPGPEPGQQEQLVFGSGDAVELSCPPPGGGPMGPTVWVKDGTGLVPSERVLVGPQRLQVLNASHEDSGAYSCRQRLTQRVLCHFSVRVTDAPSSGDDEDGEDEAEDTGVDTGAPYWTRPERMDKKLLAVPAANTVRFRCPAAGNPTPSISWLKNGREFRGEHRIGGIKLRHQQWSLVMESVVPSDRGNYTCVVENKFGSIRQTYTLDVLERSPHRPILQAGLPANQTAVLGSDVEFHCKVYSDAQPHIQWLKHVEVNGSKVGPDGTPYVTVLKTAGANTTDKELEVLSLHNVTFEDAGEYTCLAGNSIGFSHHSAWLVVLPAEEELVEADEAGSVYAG

[7] = target: T5, human FGFR1c (FGFR1/CD331) (human, UniProt P11362); experiment: ELISA
T5 chain: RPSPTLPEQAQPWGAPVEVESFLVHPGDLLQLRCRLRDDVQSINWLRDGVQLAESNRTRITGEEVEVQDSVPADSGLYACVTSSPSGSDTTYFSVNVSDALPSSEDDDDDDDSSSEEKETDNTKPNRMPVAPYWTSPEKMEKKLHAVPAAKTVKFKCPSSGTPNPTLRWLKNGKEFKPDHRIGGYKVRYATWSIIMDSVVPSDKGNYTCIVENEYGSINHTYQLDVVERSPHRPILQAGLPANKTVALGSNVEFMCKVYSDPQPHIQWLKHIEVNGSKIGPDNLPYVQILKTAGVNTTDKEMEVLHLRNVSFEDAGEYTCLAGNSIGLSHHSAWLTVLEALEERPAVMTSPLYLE

[8] = target: human FGFR4 (CD334) (human, UniProt P22455); experiment: ELISA
Sequence of human FGFR4 (CD334) (P22455 22-369): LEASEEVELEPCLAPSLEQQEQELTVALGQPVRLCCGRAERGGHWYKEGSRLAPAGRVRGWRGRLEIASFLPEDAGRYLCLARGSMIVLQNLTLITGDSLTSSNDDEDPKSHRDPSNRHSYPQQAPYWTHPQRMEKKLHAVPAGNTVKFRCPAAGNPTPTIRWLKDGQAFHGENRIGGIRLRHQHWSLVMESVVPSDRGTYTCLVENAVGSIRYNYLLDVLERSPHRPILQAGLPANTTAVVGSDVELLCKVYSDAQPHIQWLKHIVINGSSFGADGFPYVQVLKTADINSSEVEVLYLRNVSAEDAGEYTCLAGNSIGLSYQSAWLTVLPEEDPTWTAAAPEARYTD

| Binder | Kd [1] | binding result [2] | binding result [3] | binding result [4] | binding result [5] | binding result [6] | binding result [7] | binding result [8] |
| --- | --- | --- | --- | --- | --- | --- | --- | --- |
| humAbA1 (antibody, V domains shown) VH: QVQLVQSGAEVKKPGASVKVSCKASGYTFTSYNMHWVRQAPGQGLEWMGSIYPENGDTSYNQKFQDRVTLTRDTSTSTVYMELSSLRSEDTAVYYCARPFDYWGQGTLVTVSS VL: DIQMTQSPSSLSASVGDRVTITCQASQSVGNNLAWYQQKPGKAPKLLIYYASNLYTGVPSRFSGSGSGTDFTFTISSLQPEDIATYYCQQFYSSPYTFGQGTKLEIKR | < 1 nM | no binding | no binding | no binding | no binding | no binding | no binding | no binding |
| mAb1 (antibody, V domains shown) VH: QAYLQQSGAELVRPGASVKMSCKASGYTFTSYNMHWVKQTPRQGLEWIGSIYPENGDTSYNQKFRDKATLTVDKSSSTAYMQLSSLTSEDSAVYFCARPFDYWGQGTTLTVSS VL: SIVMTQTPKFLPISAGDRVTMTCKASQSVGNNVAWYQQKPGQSPKLLIYYASNRYTGVPDRFTGSGSGTDFTFTISSVQVEDLAVYFCQQFYSSPYTFGSGTKLEIK |  | no binding | no binding | no binding | no binding | no binding | no binding | no binding |
